Source: the DeepSol protein solubility set

experiment: soluble on expression in E. coli; label from the status in PepcDB or PDB records

Sequence	soluble on expression in E. coli
MAHHHHHHMLSQNVAKTTVPSYYMIRTNLPQRKPQNQWEGVYYFGGITKRQRHLILLQRKREREARMRAFSASCSNLLRLLEGDTQEQQQAKTQTIQLSSPHGPFDLAIRLAQHGLYQQASRIVDELHQQRALRMSHYGLLIDALSAPCLGQRILYGSAQCDPALTYKLLGDENGEERAQEAHRWFDMAFALLTTECRMSGSEHRLPQATAAATHLVNALMRALLTCGYTHVSAVPDAVYDRMGLMGISPTISTYELVMLALSLQGNMKEAESVFSFLRRHHNEHVTIGSFNALLLGHRECRQFDRCDAIWQELVDRRWPRASTLTAELYLRSIVDHSYTPTSGPLQRFGNINVVEKKKIPLVLAQMDDLGIPRAHLSRPLMDEVEDALRKFHIYKSRYYEWGRAVKQFNFIEFRRRNGWMYDLHLMKNTTKQVGPLRDFNQPDATQAPVATVEIPAFFNERPAWEQPPLEETLYVTESRERYDDVRSGDIYEDRTRSLHDRSPTWMNEVPETRYDHLYGVNHPDIAKIGIRRHLNAEYVNRKEVVERDAALMKKNLSTGRRLRRKVESSRTHRNAGSMSGAAPASASR	not soluble
MAHHHHHHMLSRLSERCTIATGLEQVLRHYVWSAAWLRDAEPAAAASENIDLSGLMERAGRAAYDVFANLYTSQKHWLILVGSGNNGGDGYVIARHAREAGKIVTVLRMPHSKPLPTEAASAQHAWKAVGGTESTMSPGAPLQLPADVDLIVDGLLGTGICGPPREQYADVIRHINGLPVPRVAIDIPSGLNAETGEAAGACVKADHTATFICLKPGLLTGQAKDYVGQLHYRSLGLEDWMTAPERMRVALCRRVALDDVYEYFGIRRSALAHKGSCGKAILVGGDHGFGGAALMSAEACVTVGAGLTRVLTRPEYAAPLLTRCPEAMVTAVETDTGEQLKQQMLEAFEWASTLAVGPGLGTGAYGQAALTAALRHAELHQDKTLVLDADALNLLAGCLHGREGGAAAGARKHLPVLPNSIITPHPGEAARLLDCRVADVEKDRLAAARRLAAILGGTCLLKGPGTIVHCHSSAKTAIVDAGNAGMASGGMGDVLTGLLAGLAAQRMHDTFDTTCAGALVHGVAADMVAAEDGRGTRGIRATELIHRVPLIVNASGPSPASRQRPSGQ	soluble
MAHHHHHHMLSTSQAFLASLRYRRPYWMLFLKGADNWKIYTVIQQPDHQRTEMLYQAWLGGLDRPYVRPKCMAHQPVWLSKKRHLLQKARLEGPETSVEKYVLEWYKKFHSFQGTDRPTAEDLHTAFDLVERPLDLSYACQLLNQCRNHYYIRLSDDSFEIFLEACLRVDRRDCAIYALEHAEELGFWHVSDNCRRYLAGEQTWYKRSPVDLLYYPLEENAERNTAVTSGTAASAVAASDKVKGDEKVEGAPRTSATTSATAASAENEGEAEVTDDEIARLQAELEALEREIGSEGADGTDKD	not soluble
MAHHHHHHMMKNTVRQFVKEITYLEVWEHFRRFGDAAGPDSVKCRLLCSDAVATQLNERIRMRYLLEQFLAQSSTTTSTGVAGEPRRWWEGDLTRCVDSDRRVLAETLLEDGWMLMQLNNCVSDREWLITTMTFQREKSTT	not soluble
MAHHHHHHMMSFTANSGNSPMSQMSPLSQPYTSPQMLPQSSLRPTAPPFTLSGTEDQPTAGAPIRKGGTDPTRYKTTICRNWEMGSCSFKGCTFAHGEEELRMPPRVERYKSSGFDTRRSLTAETPPLYPLNPLPHSGVGRIEHLLNMLYSEVLRERNRFVAHEEANQALEALLKKEQMQREETEVQLEAARWKLEQLRTTVHEASVEINTLLASSPANEELRDRVAMVTQKIASVFSSEDTAVGGGREDEERVMKLLSSLQNCQSTEDM	not soluble
MAHHHHHHMMSNTTSSGKGPTTFMWNSVPPSGDMPLHGCCHSLANYKDEQLILFGGGALHIIFNDVYCFDLKTSTWSYKETTNSEIVAPRISHSAVVHEDKMYVYGGQDLYMPTRFADVLVLDLITFTWSLIQQQATPAPDGPGDRRLHTAHIYRNCMYVLMGEPCNISNSFWFLDLTTLEWHPVHSSGWFGKPILPLLGHSAQVEGDYLYVFGGYHADSARRNGSPVYNNSLFSYHFPSNTWREVVPSSGPRPSPRYASAMAVIRGRVFIYGGDVDGEVYFDDFWCIDTNIPSSAASQSSSSSSYTTSLVAAPPAASSRWIDITLSCGRGRPSARSGHASAVAQGCLFVVGGELPGDRDVVYYSNRTYRYPLGYLTRLSLVELSSLWLAKCNPANIWMLDTQIPRHVRQLLVRNLNAQDRESTDDMMPCTRVVC	not soluble
MAHHHHHHMNAVKLPEEWETLCSTNDAEVIHECINGVFRRLLANLLLDFNNPKLRQVKKDNKALHRLTDSLPAGFIEFLFSSIGFVEHDDVFIFEGSPESLKHGDAVLSYIEDSFGKERLQAAECELHRLRNLAIKKAENGLAPREMMTATAPLPRTQPLPQEEDAKRQAQHSGTEKDVAEEHAVKETVRKTLLNTGRVRNGFFEARDFSVRIMQHGRVYACTEKCPDHCVEVHWHLLTGRNILYSHLAHLSADGTRLLHLGPEHGYQYNSLPGSANFGKMIHFSEKLMDENGRLVHIKNDDKPVTACIYCGRAFAQLLL	not soluble
MAHHHHHHMNLSDSNKDLNDSKSDKSTSWVKWFNSRAFSNFLVEVDNEYITDSFNLYGLKSEMPNFNHLLSIVAGDAPEEDDAKNAFGKDAVSLYSLIHARFITTPKGLSLMKDKYIKGDFGSCPRVSCSQHNVLPIGLFDQIKIAKVHVYCPLCQEIYKIHEEDKVYLDGSFFGTSFPHILLQTYPYYATLKTPSYCTSKIFGFSVYHNFTRTEYKIAKGEFGKLSRENFLKKNPKYLKKLKKEELQIKDT	not soluble
MAHHHHHHMNPSLSDSKFEKAMSKLQLLEDSRTILHRMLQHAHFSFSNAQRQMDRTGLLLAWEAVPTAAGAVKPQYCIVREMKDGGNGGDAGVGAAAISDDNVDCAVWKLVNCGDSAGEDPAKWFAVAPSEALRECQQHFRGVVNACVKVIQAQEEAITAAATVPVT	not soluble
MAHHHHHHMNSNPTTEMTTTKKEHSQDNMCEIMNKSDKNNNSSLSSRSEKSQSEEIKLCNSGIFNEDKEKQYNDFLKSYNAEYSVEQMKNFLKNGITENGVRILTTDKCSWLYDYYRITKTSDPCVKELTGNTTVDYYYYTTPFSTQIGNINLVMMHSQVNFGDGTCAPADRFFKMNSTTPEMIKEAKLKAKNFQYECMQYI	not soluble
MAHHHHHHMNSTDTKQSAGYFKEKATIGLSSFSGDEIVKAILKTTSHLLKAPKEKYMQKLVAASYGQYGSGLREGLPINEFIVRELEKRSHTHNWIVVLKTMVSFHRLMCDASDSMVETICYYRHVFRASNIKNLADTADGAGQAYFIAQYMTYLEERCVMQSALGKGRRVEIREFEEYLETLNAKSLQPVFEILLRLFEAVPAVEYREAVVNNFCTLEAYQLLVRDGKQLFQHLAKRVIFILDGFEDFSLPEKRRWFDLYRRYASAFASVKQYFDSMLCSSRVFLEPVPKLKPLPESLLTRLEGDIRASETAKEGLCTLESLGICSREDSRVDSKEEKIRPPRAPEPAVVNQSEAVTALTPAAPTVSLDDLFVPSQEPTKPVQPASCPASWTPAPLAATSFQQGSEQFQWETGVPQNWGSGGHITLQAIATPPVPPPQHAFSGGAPPPAGEGALYPLVQSALKQPPPPVQFKKPADPLKDLYNSCHWQSN	not soluble
MAHHHHHHMNSTTTISADPDGSSLCAASRISTPGTMSVLVPYKRRGQKSSMARGGASPQRRSPQPPYAGKSISTSASTLSSSVQPHGAGAASRGDQSRRGDAAPDGTLNAYSSHPAAPLDRPRDEEFDAVEQRARMALESIATRDEDLEPSMGDHIGVLQSYRTACEARAMYREAYLVQQVLRNLRLEEESRHVRGITEQQMEERRILEEAHRQEFREFHHSWNARIDAFEEEQLEAELALLERQNEELIRFQEEMRNFQPRLLRYSRSLLESRLKQQTLAKQRDYVGAQAQKAHAEAIEVEDIERFEAARMSLFERREYAARHRHQQELYALRTKVESRRLYLERYRKQELDVLLQRYINARRSMESQQNIVRNKTGTLLLKHACNMKTDSSGTAVLVESAGSGAFGTMVQRRQAYELRALQGSPDGASASVRDGSAM	not soluble
MAHHHHHHMNTHVISVGSRWVHHEVTQALRQRRGVRVEVNEELQHCDFASRASSVLYCDAHSAEMQRDQASLVLRLQEARQRCGTQPVILMVRMDSDNEVSLERLSWLNLECGVAQQCGLILVWSLDDAVQYLASLAAYAVTSLEFTGAARPYVGDAPLPVLVDALTQTPQVVTRNDVVRIANRKTSVADALMSEASEWEGIAGLGRKKAARLQHLFRTPFLSSQQRIDSFVPATGGSSFSTASKAAESHLSQPTGESTARPTEALSVDTAVTTEGRRRMMSALQQRLDKEDEEGGE	not soluble
MAHHHHHHMNVRKGILNYLTLHSTIVRRNHHRSYHKECRQQGSPHGMEKNSKMKNVRPNYFVCIPLSGNKALVEEFLKVQNHVASKFEMLKECAIERNKFHISLLILHVKKSQMESSKEAFHEAMAEIKKLNHQAISFDTLETFRNDVLYAGLQEGSRKYVMNVIALLRDSFAKRDIHIFGNRKGREEARGKKRASGASDKSAANPIDKSAANPSDKSAAPPGTHERDDKEQITPHVTIMKNSYLRKIYANRKPQIFADYYADFNLSKLKNERVVPNKIQFLEMDTDSATSYYRIIAECGLP	not soluble
MAHHHHHHMPKYYCEYCDIYLTHSSPVGRRQHIHGRKHISAKIEYFQNLLREEGITPQNFLGFLNNRNINNPLGNPMMNYMNPNMYMKYNPMKSYHSYSMRSSHPYRLNIHNNKYSRAGYVPPSHHKYSVNPMHNNYHQAHNNYSYPNSINPSNQINYSNNYGSNNFNNSNEFNKNMNEKDNINNNDIHDNKVKTDENDPINNDNLNNTRNFSYEENHYSTDHKKPSFLNPENSKEHIESDIS	not soluble
MAHHHHHHMPPLTLEQVLARSMRLPRKHMKHTATPMASNPAIGISTPLDNSLGRGDKSVAKLFSLIEKDEESTAAGRPFIHQSNNLIRNSHDLLTYLHTAKRMRAWEDALRSFAEVTKMLLINQTEEGDGVSLTLREGAEGAEGVTASVSHLALLLDTCASAKQWHLVEQIGEIFRSQSRQTLIDAVAVLANTKKETIGEGLYGWERALHFLQTRIPPEEQPVEAYNACIAACETALEWEGALAIVRSMGPNPLQNLDSKVFSGTTGIGVASAGSTVEGVSSSLGTEAREESVLATFPPPVPDVVTYATLISVLEQSGKEALASEVLQRLPPVEKEEITASYAALIHVWSEQKYRNHRRRF	not soluble
MAHHHHHHMPSDRVPSGDGFNNPYGNTTLVGNWLEDRLQQRIVHKRRGGAAATWCAQGIFEDPAVTMARHPAEAQAALLHSTYDVDYGHRPGRTQRTASGGVDNSAAASTLMRGSKHNANAAGPGSASSTAKGGIDKVLLFSIDPVADPAAPLPLSTNADTYGAFYYGNDNGSVDNNGARHAGSATGATTSSPADQGDGGATAPPADADRNLYDSVSRAVAAAAAPSSSFRMPRAPMQRGANADATFSSSPVPRRHMLSLGVATTSTFGHTGWTLASSSATSAADHVGAAPWRPLQRHRLPNKDSMDDERWCSSKQAADTPVEHFTLQQRLPPVRM	not soluble
MAHHHHHHMPSLFDPLTIGDLTLANRIIMAPLTRARAGDTRTPNALMARYYAERASAGLIISEATSVTPQGVGYASTPGIWSPEQVDGWRLVTDAVHAAGGRIFLQLWHVGRVSDPVFLDGALPVAPSAIAPGGHVSLVRPQRPYVTPRALELDEIPGVVAAFRRGAENARAAGFDGVEVHGANGYLLDQFLQDSANRRTDAYGGSIENRARLLLEVVDAAIDVWSAARVGVHLAPRGDAHTMGDSDPAATFGHVARELGRRRIAFLFARESFGGDAIGQQLKAAFGGPFIVNENFTLDSAQAALDAGQADAVAWGKLFIANPDLPRRFKLNAPLNEPNAATFYAQGEVGYTDYPALESAA	soluble
